# Assay: soluble on expression in E. coli; label from the status in PepcDB or PDB records
row,Sequence,soluble on expression in E. coli
1,MKKAALMLITFLGLTACSQGVTSMPDRTQTPCGNKPNCVSTQDQREEHHLEPFTLTESATLDAIEQAALQLSGAKTAEKDGNYLRIECTSKIMRFVDDLELKIDGNTLIVRSESRVGYSDFGVNRKRAEQLRTELSKAELIKLEHHHHHH,not soluble
2,MKKDAKDHARNRLMDCYIKKAPTYAAIVKIEHFENDDASSKDFEPFVVYSLNKKKRWEINEESLNSSTEGTSTKSVIIDREIPDLQDSWWCLQNDLLNNCIYHSNPVNSAQMATAKKYEKVIGYHIVRIPVNHKKVFDKKCTRDLSYRYRDSIGNVPRDLTVLQYEMKEVEHGKEDFAKENISPEVNNPSKTIGFYNLEEHFVARKQQKSKGWLTVN,not soluble
3,MKKIFMMVHELDVNKGGMTSSMFNRSKEFYDADIPADIVTFDYKGNYDEIIKALKKQGKMDRRTKMYNVFEYFKQISNNKHFKSNKLLYKHISERLKNTIEIEESKGISRYFDITTGTYIAYIRKSKSEKVIDFFKDNKRIERFSFIDNKVHMKETFNVDNKVCYQVFYDEKGYPYISRNINANNGAVGKTYVLVNKKEFKNNLALCVYYLEKLIKDSKDSIMICDGPGSFPKMFNTNHKNAQKYGVIHVNHHENFDDTGAFKKSEKYIIENANKINGVIVLTEAQRLDILNQFDVENIFTISNFVKIHNAPKHFQTEKIVGHISRMVPTKRIDLLIEVAELVVKKDNAVKFHIYGEGSVKDKIAKMIEDKNLERNVFLKGYTTTPQKCLEDFKLVVSTSQYEGQGLSMIEAMISKRPVVAFDIKYGPSDFIEDNKNGYLIENHNINDMADKILQLVNNDVLAAEFGSKARENIIEKYSTESILEKWLNLFNS,not soluble
4,MKKIGFIGLGNMGLPMSKNLVKSGYTVYGVDLNKEAEASFEKEGGIIGLSISKLAETCDVVFTSLPSPRAVEAVYFGAEGLFENGHSNVVFIDTSTVSPQLNKQLEEAAKEKKVDFLAAPVSGGVIGAENRTLTFMVGGSKDVYEKTESIMGVLGANIFHVSEQIDSGTTVKLINNLLIGFYTAGVSEALTLAKKNNMDLDKMFDILNVSYGQSRIYERNYKSFIAPENYEPGFTVNLLKKDLGFAVDLAKESELHLPVSEMLLNVYDEASQAGYGENDMAALYKKVSEQLISNQK,soluble
5,MKKIKTISTLVAGLGIAFLGHTTHADAAENNNQQQSTHNYSTTEVSFSNSGNLYTSGQCTWYVYDKTGGKIGSTWGNANSWATAAQAAGFTVNNTPEEGAIMQSSEGAFGHVAFVESVNNDGSITVSEMNYDGGPFAISTRTISASEASSYNYIHLNLEHHHHHH,not soluble
6,MKKIQRTQTRDHITQMLRYEILSGNIKAGEELAQESIAEQLGLSRMPVREALQSLEQEGFLIRLPNRHMQVAHLEADRVSHIFRVIAAMAAEMFSLIPSEVGDALLIRAQALAVAEDKSCELECHAMLISYVNNRYLEKVYQQFLDGYVSYVILHLKKDNQESAQLFAELADVIRQGRRDEIGQVMQRYFLSLAEIMRQHMKDWESAEA,not soluble
7,MKKLAFAITAASGAAAVLSHHDAEASTQHKVQSGESLWTIAQQYNTSVESIKQNNNLSNNMVFPGQVINVGGSASQNTSSNTSSSSASSHTVVAGESLNIIANKYGVSVDALMQANHLNGYLIMPNQILTIPNGGSGSGSGGTATQTSGNYTSPSFNHQNLYTEGQCTWYVFDKRSQAGKPISTYWSDAKYWASNAANDGYQVDNTPSVGAIMQSTPGPYGHVAYVERINGDGSILISEMNYANGPYNMNYRTIPASEVSSYAFIHLEHHHHHH,not soluble
8,MKKNFFSDLPEETIVNTLSFLKANTLARIAQTCQFFNRLANDKHLELHQLRQQHIKRELWGNLMVAARSNNLEEVKKILKKGIDPTQTNSYHLNRTPLLAAIEGKAYQTANYLWRKYTFDPNFKDNYGDSPISLLKKQLANPAFKDKEKKQIRALIRGMQEEKIAQSKCLVC,not soluble
9,MKKRLTESQFQEAIQGLEVGQQTIEIARGVLVDGKPQATFATSLGLTRGAVSQAVHRVWAAFEDKNLPEGYARVTAVLPEHQAYIVRKWEADAKKKQETKR,soluble
10,MKKSRYTETQIVKILKEVEAGRLVKEICREYGISDATYYNWKAKYGGMESSDIKRLKDLEEENRRLKQMYAELSLDHKILKDIVEKKLLEHHHHHH,not soluble
11,MKKSSILILIIICLVGCKKGSNETTITGEIKGLGTDTLYLYGMDELYDRIDTIYVENDKFSYTTSVDTITSAYLLLKNRIEYPVFLDKGNKIKIKGDTINLNFLTISGNIYNEEFTDFQKALEDPADPSEKAGEETVDKRITVEKANTAEEMAEEFILQHHSSYVSLYLLDKYFVQKETPDFSKIKKLVEVMTGVLQDKPYIERLNETITQAEKSEIGKYAPFFSLPNAKGEKITRSSDAFKQKSLLINFWASWNDSISQKQSNSELREIYKKYKKNKYIGMLGISLDVDKQQWKDAIKRDTLDWEQVCDFGGLNSEVAKQYSIYKIPANILLSSDGKILAKNLRGEELKKKIENIVEEATEKEKKNKQKK,not soluble
12,MKKTKFSSYEEYRNYFKRLIDLERRAQTELHLKEIKTLSGKEREKRGRAILNLRAKFLGRGLGGVYLVRYSRPQGLPKTEISTGDIVLVSKGKPTVKEVQGTVAEKTNYYLVVAFRDKPPPYALGKDVRIDLFSNEITFKRMEEALKNFKEHPLRDFILGKKVLEHHHHHH,soluble
13,MKKVIFKPLKSYPVKMAMIALTLLAASPITHAEESKMKNATITVTATGENQATPDMAIINLAVVTQDKTAQKALADNNKSMNDIINAFKNNGIQANDLQTSGLSIYQSNPNKDHEKKNNGIVYHVSNSLTVRIRDLSNAGKIFDQAMALGVNSVHGITFTNANTKPFYQEARKKAIAEAIEKAKTIAEAADLKLGKIIKINENDDNYYSRPHLMSKAVNANYTDTTFSSGELNYSVSVTIVFAID,not soluble
14,MKKVKLIGTLDYGKYRYPKNHPLKIPRVSLLLRFKDAMNLIDEKELIKSRPATKEELLLFHTEDYINTLMEAERSQSVPKGAREKYNIGGYENPVSYAMFTGSSLATGSTVQAIEEFLKGNVAFNPAGGMHHAFKSRANGFCYINNPAVGIEYLRKKGFKRILYIDLDAHHCDGVQEAFYDTDQVFVLSLHQSPEYAFPFEKGFLEEIGEGKGKGYNLNIPLPKGLNDNEFLFALEKSLEIVKEVFEPEVYLLQLGTDPLLEDYLSKFNLSNVAFLKAFNIVREVFGEGVYLGGGGYHPYALARAWTLIWCELSGREVPEKLNNKAKELLKSIDFEEFDDEVDRSYMLETLKDPWRGGEVRKEVKDTLEKAKASS,soluble
15,MKKYIALAWVCLALTDVMAQKQKVVEKVVDEDYYPVEGAVVTLKRTNQNATTDKDGVFILEEVPVYFDSLQVKKGKRSGYIDLPMRIQMRTQVMQRFSWSVKAGIGAGKFMQGPESKLKDGFSIYGGVGADIRMSKHWAFQPSLLLVSRKMKGYDFYGYYAENNGDGSSSASYEQVSGTYNPFYLEIPLLFALKYRVGNDMNLVFSFGPYIDLGLSGDEKREYIKHYYDTMEGNKTESVTNSRSLFGKRFTGGFAYGIGVEYGRFLIGGTGRVGCTSWNHSEGFIDVAFEIGYRF,not soluble
16,MKLAIIIPVYNAEETIKRAILSVDTSVPYEIICINDGSTDQTQHVLTELQQKHPHIKVIHQSNQGAARSRNVGLEAMSEDVDAFLFLDADDEFLPSRIDLMVNAFNKNKETDVVIGQMARDVNGEWQVISTHQSMVKDAIVTLDRKPDILQSIGPGAKLFSSKYAGLRFDEDVVFCEEHTFIVKAFSKARDIQLIPNIVYGYNEREGSVTAQRADTFLPYMSDALKVRQRVMELLLLLDEKIYYSYRMDNLIVSYLIQAHLKKNNKITQSLLESVIEYMKAMQHTHYSGEAMFRIVRAVEQSATHWTKPLYLQWKKALSEVGIGRPGLIRFKLQVIPKKISFSGKESLKRIFKK,not soluble
17,MKLATKKNGTRDGLLMVVSKDLTRCVPATEVFHPRNLAPTMQVALDNWEAVAPQLEEIYTALNNGTVAGFEEFEAHYCESPLPRAYQWADGSAYVNHVELVRKARGAEMPESFWTDPLMYQGGSDAFIGPCDNIEFASDEWGIDFEGEVAVVTGDVPMGASIAEAQESIRLIMLVNDVSLRGLIPAELAKGFGFFQSKPSSAFSPVAVTPDELGDEWYENKVHLPLVSTYNHKPFGRPNAGVDMTFDFADLIVHATKTRPLSAGAIIGSGTVSNKQGTDHGTSIEEGGVGYSCIAEVRMIETIRDGKPTTNFMSFGDSIKLEMFDVEGNTIFGAIDQQVSQYLKH,not soluble
18,MKLDAKSTIETGKAILGIELGSTRIKAVLIDQENKPIAQGSHTWENQLVNGLWTYSIDAIWSGLQDCYADLRSNVKKLYDTEIETLAAIGVSAMMHGYMPFNEKEEILVPFRTWRNTNTGRAAAELSELFVYNIPLRWSISHLYQAILDNEAHVKDIKFLTTLAGYVHWQITGEKVLGIGDASGMLPIDPTTNNYSAEMVAKFNNLIASKEYSWKLEDILPKVLSAGENAGVLTPEGCKKLDASGHLKAGIPVCPPEGDA,not soluble
19,MKLEASLKHFSPQGMHISDSVKETSPDRLTGTDIMVAIGTTSSRARFGLAAFFGKAGISKTDEQLAVQALVRHAMDTAPKNVRKAAGGEFGWCMLVLAQFAFAEYSRSAATSVTCHTCKGSGRITRTQTTRKVSYPWGKAPYWASKSRAVRPSDWEKWTEVTEIVPAVCEACDGKGTISARCRCGGKGEVLDRIATKERGVPVFKTCERCSGEGYSRVSSATVHRAILKRLPDLHQSSWSRNWKPFYEMLVDVLYKGERQAASEFEKATAY,not soluble
20,MKLEVLPLDQKTFSAYGDVIETQEREFFHINNGLVERYHDLAKVEVLEQDRTLISINRAQPAAMPIVVHELERHPLGTQAFVPMNGEAFVVIVALGDDKPDLSTLRAFISNGRQGVNYHRNVWHHPLFAWQTVTDFLTVDRGGSDNCDVESIPTHELCFALEHHHHHH,soluble
21,MKLIVVTTPTFFVEEDKIITALFEEGLDILHLRKPETPAMYSERLLTLIPEKYHRRIVTHEHFYLKEEFNLMGIHLNARNPSEPHDYAGHVSCSCHSVEEVKNRKHFYDYVFMSPIYDSISKVNYYSTYTAEELREAQKAKIIDSKVMALGGINEDNLLEIKDFGFGGAVVLGDLWNKFDACLDQNYLAVIEHFKKLKKLADLEHHHHHH,soluble
22,MKLLQKQQQQGGGDNQDQNKENNHDKKQPQNNPNNNNQGGQQQPQPSKQDNTQKDQQPRQNEMSRESAEKILKAYEQDEEKTREKVEQMRKQRMKQQKGNSTKQW,not soluble
23,MKLPVPSPMRLAVTHEGRSIIYIPSPEYAVASGRLEPAWLEVFYNPAMEFNRDVSVVAASALRRTGLLTRSGVAFDAHAGVGVRGVRYAVEAGYVKVIMNDINPKASMLAALNARANGLEPGSYMIFNKESNSLMFHLSRERPTPVSLIDIDPYGSPAPFVDAALALSGKGTVVAMTATDLAVLEGGKARAAVRRYMLRSVSKTPVSKETGLRVLLGYVARVAAAHDKAVKPLLAYYADHYYRVYVAVERGARRSDSMLEENLGRLVYCPETGVALALSYAEDPASACGGSYVVAADPAWIGSLGDQAFLEAMLNIAVEAVWLGTRPRVEKLLNTLHGEAPLSPRSIYVSLTSVASKARVNTPKKSKVVELLRSMGYRAVATHFSGEGVRTDAPWGEVLEAVVKLGSSG,soluble

# From the DeepSol protein solubility set
